Data taken from paper PMC9482650, “Quantitative fragmentomics allow affinity mapping of interactomes” (Nature Communications, 2022).

target: LAP2, Q96RT1; test: holdup assay; set-up: key: below the threshold = too weak to quantify, mostly under pKd 3.1 to 4; conditions: plain residues with an end cap or a label only (N-terminal biotin on a linker: ado-ado)
Sequence (Q96RT1 other isoform, or with tags, fused parts or gaps): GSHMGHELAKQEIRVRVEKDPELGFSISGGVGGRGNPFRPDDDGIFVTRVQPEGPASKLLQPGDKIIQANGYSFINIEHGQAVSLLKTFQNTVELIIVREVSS

**Q.** Which pKd does the source give for SGSLKLMTTV [DACT1, Q9NYF0] here?
**A.** below the threshold

target: GRIP2_6, Q9C0E4; test: holdup assay; set-up: key: below the threshold = too weak to quantify, mostly under pKd 3.1 to 4; conditions: plain residues with an end cap or a label only (N-terminal biotin on a linker: ado-ado)
Sequence (Q9C0E4 648-740): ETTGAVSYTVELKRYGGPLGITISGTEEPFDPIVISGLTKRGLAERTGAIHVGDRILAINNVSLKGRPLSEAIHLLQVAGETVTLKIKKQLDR

**Q.** For SGSLKLMTTV [DACT1, Q9NYF0], which pKd is on record?
**A.** below the threshold

target: T1, TIAM2, Q8IVF5; test: holdup assay; set-up: key: below the threshold = too weak to quantify, mostly under pKd 3.1 to 4; conditions: plain residues with an end cap or a label only (N-terminal biotin on a linker: ado-ado)
T1 sequence (Q8IVF5 885-986, limits assumed, looked up): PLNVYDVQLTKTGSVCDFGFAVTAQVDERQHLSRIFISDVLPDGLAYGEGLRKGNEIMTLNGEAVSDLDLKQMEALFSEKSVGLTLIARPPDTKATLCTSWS

**Q.** Which pKd does the source give for SGSLKLMTTV [DACT1, Q9NYF0] here?
**A.** below the threshold

target: T2, NHERF3_1, Q5T2W1; test: holdup assay; set-up: key: below the threshold = too weak to quantify, mostly under pKd 3.1 to 4; conditions: plain residues with an end cap or a label only (N-terminal biotin on a linker: ado-ado)
T2 sequence (Q5T2W1 4-100, limits assumed, looked up): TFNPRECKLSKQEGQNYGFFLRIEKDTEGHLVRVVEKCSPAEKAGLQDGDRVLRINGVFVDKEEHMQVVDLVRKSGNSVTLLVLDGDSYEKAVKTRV

**Q.** With SGSLKLMTTV [DACT1, Q9NYF0] as the binder, how does the pKd read?
**A.** below the threshold

target: CASK, O14936; test: holdup assay; set-up: key: below the threshold = too weak to quantify, mostly under pKd 3.1 to 4; conditions: plain residues with an end cap or a label only (N-terminal biotin on a linker: ado-ado)
Sequence (O14936 487-570): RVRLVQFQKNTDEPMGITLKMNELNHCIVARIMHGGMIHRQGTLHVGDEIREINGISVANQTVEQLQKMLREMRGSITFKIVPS

**Q.** SGSLKLMTTV [DACT1, Q9NYF0] was tested. Which pKd did it give?
**A.** below the threshold

target: NHERF2_2, Q15599; test: holdup assay; set-up: key: below the threshold = too weak to quantify, mostly under pKd 3.1 to 4; conditions: plain residues with an end cap or a label only (N-terminal biotin on a linker: ado-ado)
Sequence (Q15599 142-238): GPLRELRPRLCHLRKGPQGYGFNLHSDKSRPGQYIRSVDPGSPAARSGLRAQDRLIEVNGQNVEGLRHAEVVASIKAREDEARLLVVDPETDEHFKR

**Q.** With SGSLKLMTTV [DACT1, Q9NYF0] as the binder, how does the pKd read?
**A.** below the threshold

target: LNX1_2, Q8TBB1; test: holdup assay; set-up: key: below the threshold = too weak to quantify, mostly under pKd 3.1 to 4; conditions: plain residues with an end cap or a label only (N-terminal biotin on a linker: ado-ado)
Sequence (Q8TBB1 371-470): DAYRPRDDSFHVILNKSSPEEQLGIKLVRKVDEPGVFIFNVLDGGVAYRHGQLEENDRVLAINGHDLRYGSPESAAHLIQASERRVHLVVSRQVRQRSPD

**Q.** Which pKd does the source give for SGSLKLMTTV [DACT1, Q9NYF0] here?
**A.** 3.84

target: HTRA2, O43464; test: holdup assay; set-up: key: below the threshold = too weak to quantify, mostly under pKd 3.1 to 4; conditions: plain residues with an end cap or a label only (N-terminal biotin on a linker: ado-ado)
Sequence (O43464 355-458): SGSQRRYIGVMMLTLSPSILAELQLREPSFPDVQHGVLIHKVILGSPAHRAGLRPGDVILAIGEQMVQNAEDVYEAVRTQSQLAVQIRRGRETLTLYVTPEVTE

**Q.** With SGSLKLMTTV [DACT1, Q9NYF0] as the binder, how does the pKd read?
**A.** below the threshold

target: T3, MPDZ_10, O75970; test: holdup assay; set-up: key: below the threshold = too weak to quantify, mostly under pKd 3.1 to 4; conditions: plain residues with an end cap or a label only (N-terminal biotin on a linker: ado-ado)
T3 sequence (O75970 1624-1722, limits assumed, looked up): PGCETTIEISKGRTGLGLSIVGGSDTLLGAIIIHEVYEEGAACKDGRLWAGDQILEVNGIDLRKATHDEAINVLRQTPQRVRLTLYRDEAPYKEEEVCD

**Q.** For SGSLKLMTTV [DACT1, Q9NYF0], which pKd is on record?
**A.** below the threshold

target: GRIP2_5, Q9C0E4; test: holdup assay; set-up: key: below the threshold = too weak to quantify, mostly under pKd 3.1 to 4; conditions: plain residues with an end cap or a label only (N-terminal biotin on a linker: ado-ado)
Sequence (Q9C0E4 544-642): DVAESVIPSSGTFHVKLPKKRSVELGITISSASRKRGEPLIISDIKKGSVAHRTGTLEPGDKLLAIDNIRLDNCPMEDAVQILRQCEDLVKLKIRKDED

**Q.** Which pKd does the source give for SGSLKLMTTV [DACT1, Q9NYF0] here?
**A.** below the threshold

target: GORASP1, Q9BQQ3; test: holdup assay; set-up: key: below the threshold = too weak to quantify, mostly under pKd 3.1 to 4; conditions: plain residues with an end cap or a label only (N-terminal biotin on a linker: ado-ado)
Sequence (Q9BQQ3 1-208): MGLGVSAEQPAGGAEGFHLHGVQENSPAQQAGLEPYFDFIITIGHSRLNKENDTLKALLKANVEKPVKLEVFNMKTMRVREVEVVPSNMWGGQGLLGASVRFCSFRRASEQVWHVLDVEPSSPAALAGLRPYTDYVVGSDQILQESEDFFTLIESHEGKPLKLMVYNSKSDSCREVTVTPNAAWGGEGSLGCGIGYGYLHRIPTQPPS

**Q.** SGSLKLMTTV [DACT1, Q9NYF0] was tested. Which pKd did it give?
**A.** 3.56

target: T4, PDZRN3_1, Q9UPQ7; test: holdup assay; set-up: key: below the threshold = too weak to quantify, mostly under pKd 3.1 to 4; conditions: plain residues with an end cap or a label only (N-terminal biotin on a linker: ado-ado)
T4 sequence (Q9UPQ7 244-349, limits assumed, looked up): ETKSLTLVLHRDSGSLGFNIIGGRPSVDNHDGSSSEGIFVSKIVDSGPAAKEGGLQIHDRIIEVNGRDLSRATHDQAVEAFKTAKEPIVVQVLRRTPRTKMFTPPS

**Q.** Which pKd does the source give for SGSLKLMTTV [DACT1, Q9NYF0] here?
**A.** below the threshold

target: T5, APBA1_2, Q02410; test: holdup assay; set-up: key: below the threshold = too weak to quantify, mostly under pKd 3.1 to 4; conditions: plain residues with an end cap or a label only (N-terminal biotin on a linker: ado-ado)
T5 sequence (Q02410 742-832, limits assumed, looked up): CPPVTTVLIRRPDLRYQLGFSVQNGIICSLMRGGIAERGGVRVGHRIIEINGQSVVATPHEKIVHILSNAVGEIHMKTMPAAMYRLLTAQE

**Q.** SGSLKLMTTV [DACT1, Q9NYF0] was tested. Which pKd did it give?
**A.** 3.5

target: FRMPD2_2, Q68DX3; test: holdup assay; set-up: key: below the threshold = too weak to quantify, mostly under pKd 3.1 to 4; conditions: plain residues with an end cap or a label only (N-terminal biotin on a linker: ado-ado)
Sequence (Q68DX3 944-1038): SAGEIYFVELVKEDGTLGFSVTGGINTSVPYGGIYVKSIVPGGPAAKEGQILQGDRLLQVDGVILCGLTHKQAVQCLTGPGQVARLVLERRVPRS

**Q.** How did the pKd turn out when SGSLKLMTTV [DACT1, Q9NYF0] was run?
**A.** below the threshold

target: T6, PTPN13_1, Q12923; test: holdup assay; set-up: key: below the threshold = too weak to quantify, mostly under pKd 3.1 to 4; conditions: plain residues with an end cap or a label only (N-terminal biotin on a linker: ado-ado)
T6 sequence (Q12923 1088-1188, limits assumed, looked up): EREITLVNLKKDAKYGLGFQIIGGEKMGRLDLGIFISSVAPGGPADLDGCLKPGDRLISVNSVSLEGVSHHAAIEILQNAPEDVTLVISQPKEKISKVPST

**Q.** With SGSLKLMTTV [DACT1, Q9NYF0] as the binder, how does the pKd read?
**A.** below the threshold

target: GRIP2_4, Q9C0E4; test: holdup assay; set-up: key: below the threshold = too weak to quantify, mostly under pKd 3.1 to 4; conditions: plain residues with an end cap or a label only (N-terminal biotin on a linker: ado-ado)
Sequence (Q9C0E4 446-548): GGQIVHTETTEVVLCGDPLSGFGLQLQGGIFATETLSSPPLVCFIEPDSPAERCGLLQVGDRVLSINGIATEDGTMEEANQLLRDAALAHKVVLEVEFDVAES

**Q.** For SGSLKLMTTV [DACT1, Q9NYF0], which pKd is on record?
**A.** below the threshold

target: T7, APBA2_1, Q99767; test: holdup assay; set-up: key: below the threshold = too weak to quantify, mostly under pKd 3.1 to 4; conditions: plain residues with an end cap or a label only (N-terminal biotin on a linker: ado-ado)
T7 sequence (Q99767 563-664, limits assumed, looked up): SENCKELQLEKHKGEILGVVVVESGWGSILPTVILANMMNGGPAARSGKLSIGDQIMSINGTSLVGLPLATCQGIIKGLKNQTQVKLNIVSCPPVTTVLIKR

**Q.** For SGSLKLMTTV [DACT1, Q9NYF0], which pKd is on record?
**A.** below the threshold

target: T8, DLG3_3, Q92796; test: holdup assay; set-up: key: below the threshold = too weak to quantify, mostly under pKd 3.1 to 4; conditions: plain residues with an end cap or a label only (N-terminal biotin on a linker: ado-ado)
T8 sequence (Q92796 374-475, limits assumed, looked up): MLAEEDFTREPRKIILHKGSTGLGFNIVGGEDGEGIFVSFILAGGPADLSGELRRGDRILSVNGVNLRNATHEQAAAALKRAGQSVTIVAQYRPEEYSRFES

**Q.** For SGSLKLMTTV [DACT1, Q9NYF0], which pKd is on record?
**A.** 4.2

target: Inadl_2, Q8NI35; test: holdup assay; set-up: key: below the threshold = too weak to quantify, mostly under pKd 3.1 to 4; conditions: plain residues with an end cap or a label only (N-terminal biotin on a linker: ado-ado)
Sequence (Q8NI35 238-335): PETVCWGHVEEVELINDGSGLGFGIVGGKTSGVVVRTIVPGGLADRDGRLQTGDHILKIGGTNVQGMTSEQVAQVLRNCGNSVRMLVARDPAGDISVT

**Q.** With SGSLKLMTTV [DACT1, Q9NYF0] as the binder, how does the pKd read?
**A.** below the threshold

target: MAGI1_1, Q96QZ7; test: holdup assay; set-up: key: below the threshold = too weak to quantify, mostly under pKd 3.1 to 4; conditions: plain residues with an end cap or a label only (N-terminal biotin on a linker: ado-ado)
Sequence (Q96QZ7 1-106): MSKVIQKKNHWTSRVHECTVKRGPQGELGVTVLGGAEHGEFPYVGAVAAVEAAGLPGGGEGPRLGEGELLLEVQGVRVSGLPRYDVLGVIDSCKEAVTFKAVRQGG

**Q.** For SGSLKLMTTV [DACT1, Q9NYF0], which pKd is on record?
**A.** below the threshold

target: T9, SNTG2, Q9NY99; test: holdup assay; set-up: key: below the threshold = too weak to quantify, mostly under pKd 3.1 to 4; conditions: plain residues with an end cap or a label only (N-terminal biotin on a linker: ado-ado)
T9 sequence (Q9NY99 68-166, limits assumed, looked up): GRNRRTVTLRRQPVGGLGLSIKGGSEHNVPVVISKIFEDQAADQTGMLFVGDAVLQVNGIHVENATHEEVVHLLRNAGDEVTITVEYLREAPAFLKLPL

**Q.** For SGSLKLMTTV [DACT1, Q9NYF0], which pKd is on record?
**A.** 3.66

target: FRMPD2_3, Q68DX3; test: holdup assay; set-up: key: below the threshold = too weak to quantify, mostly under pKd 3.1 to 4; conditions: plain residues with an end cap or a label only (N-terminal biotin on a linker: ado-ado)
Sequence (Q68DX3 1073-1166): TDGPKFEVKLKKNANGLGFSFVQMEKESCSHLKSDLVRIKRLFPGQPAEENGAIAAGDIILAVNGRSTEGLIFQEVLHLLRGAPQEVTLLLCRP

**Q.** Which pKd does the source give for SGSLKLMTTV [DACT1, Q9NYF0] here?
**A.** below the threshold

target: GRIP2_3, Q9C0E4; test: holdup assay; set-up: key: below the threshold = too weak to quantify, mostly under pKd 3.1 to 4; conditions: plain residues with an end cap or a label only (N-terminal biotin on a linker: ado-ado)
Sequence (Q9C0E4 238-339): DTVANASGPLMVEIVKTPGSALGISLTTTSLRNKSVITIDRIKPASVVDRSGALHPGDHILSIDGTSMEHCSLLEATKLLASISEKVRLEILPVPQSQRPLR

**Q.** How did the pKd turn out when SGSLKLMTTV [DACT1, Q9NYF0] was run?
**A.** below the threshold

target: LNX1_1, Q8TBB1; test: holdup assay; set-up: key: below the threshold = too weak to quantify, mostly under pKd 3.1 to 4; conditions: plain residues with an end cap or a label only (N-terminal biotin on a linker: ado-ado)
Sequence (Q8TBB1 261-371): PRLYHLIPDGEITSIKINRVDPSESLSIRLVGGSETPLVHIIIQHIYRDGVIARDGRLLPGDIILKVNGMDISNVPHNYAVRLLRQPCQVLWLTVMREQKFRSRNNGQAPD

**Q.** How did the pKd turn out when SGSLKLMTTV [DACT1, Q9NYF0] was run?
**A.** 4.04

target: PARD3_3, Q8TEW0; test: holdup assay; set-up: key: below the threshold = too weak to quantify, mostly under pKd 3.1 to 4; conditions: plain residues with an end cap or a label only (N-terminal biotin on a linker: ado-ado)
Sequence (Q8TEW0 582-685): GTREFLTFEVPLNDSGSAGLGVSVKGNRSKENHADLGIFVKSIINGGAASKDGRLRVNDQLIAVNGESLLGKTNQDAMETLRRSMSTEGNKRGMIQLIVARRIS

**Q.** For SGSLKLMTTV [DACT1, Q9NYF0], which pKd is on record?
**A.** below the threshold

target: TJP1_3, Q07157; test: holdup assay; set-up: key: below the threshold = too weak to quantify, mostly under pKd 3.1 to 4; conditions: plain residues with an end cap or a label only (N-terminal biotin on a linker: ado-ado)
Sequence (Q07157 416-512): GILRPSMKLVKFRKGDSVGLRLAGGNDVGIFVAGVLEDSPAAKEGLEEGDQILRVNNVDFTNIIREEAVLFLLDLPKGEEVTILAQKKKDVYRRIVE

**Q.** SGSLKLMTTV [DACT1, Q9NYF0] was tested. Which pKd did it give?
**A.** below the threshold

target: T10, PARD3B_1, Q8TEW8; test: holdup assay; set-up: key: below the threshold = too weak to quantify, mostly under pKd 3.1 to 4; conditions: plain residues with an end cap or a label only (N-terminal biotin on a linker: ado-ado)
T10 sequence (Q8TEW8 196-299, limits assumed, looked up): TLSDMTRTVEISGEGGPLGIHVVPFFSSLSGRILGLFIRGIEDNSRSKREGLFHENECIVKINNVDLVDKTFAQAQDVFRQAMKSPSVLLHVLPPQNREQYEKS

**Q.** How did the pKd turn out when SGSLKLMTTV [DACT1, Q9NYF0] was run?
**A.** below the threshold
